Experimental data from paper PMC3857783, “Human Fanconi Anemia Complementation Group A Protein Stimulates the 5’ Flap Endonuclease Activity of FEN1” (PLoS ONE, 2013).

Molecular target: Flap endonuclease 1 (FEN1) (human (endogenous in RA3087 cells), UniProt P39748-1 1-380)
Test: cell-based or functional assay

Sequence of Flap endonuclease 1 (FEN1) (P39748 whole entry): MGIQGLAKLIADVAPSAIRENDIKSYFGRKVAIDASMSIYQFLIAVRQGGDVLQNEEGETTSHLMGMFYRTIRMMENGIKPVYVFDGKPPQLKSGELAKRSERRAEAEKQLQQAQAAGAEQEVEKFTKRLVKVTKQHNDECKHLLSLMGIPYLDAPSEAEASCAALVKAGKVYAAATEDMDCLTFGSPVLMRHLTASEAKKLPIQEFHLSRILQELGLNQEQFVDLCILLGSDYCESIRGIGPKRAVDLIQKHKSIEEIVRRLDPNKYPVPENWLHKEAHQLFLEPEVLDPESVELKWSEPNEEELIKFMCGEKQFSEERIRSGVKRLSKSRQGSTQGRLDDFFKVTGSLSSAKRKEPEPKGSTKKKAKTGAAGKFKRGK

stimulation of FEN1 5' flap endonuclease activity on the 15-nt DNA flap (2 nM substrate, 0.2 nM purified FEN1) by purified His6-FANCA at 2.5, 5, 10 nM; fold over FEN1 alone: 4.5 fold
stimulation of FEN1 5' flap endonuclease activity on the 15-nt RNA flap (2 nM substrate, 0.1 nM purified FEN1) by purified His6-FANCA at 2.5, 5, 10 nM; fold over FEN1 alone: 8 fold
B1: FLAG-FANCA (human Fanconi anemia complementation group A protein) (natural protein, UniProt O15360-1 1-1455, looked up)
chain: MSDSWVPNSASGQDPGGRRRAWAELLAGRVKREKYNPERAQKLKESAVRLLRSHQDLNALLLEVEGPLCKKLSLSKVIDCDSSEAYANHSSSFIGSALQDQASRLGVPVGILSAGMVASSVGQICTAPAETSHPVLLTVEQRKKLSSLLEFAQYLLAHSMFSRLSFCQELWKIQSSLLLEAVWHLHVQGIVSLQELLESHPDMHAVGSWLFRNLCCLCEQMEASCQHADVARAMLSDFVQMFVLRGFQKNSDLRRTVEPEKMPQVTVDVLQRMLIFALDALAAGVQEESSTHKIVRCWFGVFSGHTLGSVISTDPLKRFFSHTLTQILTHSPVLKASDAVQMQREWSFARTHPLLTSLYRRLFVMLSAEELVGHLQEVLETQEVHWQRVLSFVSALVVCFPEAQQLLEDWVARLMAQAFESCQLDSMVTAFLVVRQAALEGPSAFLSYADWFKASFGSTRGYHGCSKKALVFLFTFLSELVPFESPRYLQVHILHPPLVPGKYRSLLTDYISLAKTRLADLKVSIENMGLYEDLSSAGDITEPHSQALQDVEKAIMVFEHTGNIPVTVMEASIFRRPYYVSHFLPALLTPRVLPKVPDSRVAFIESLKRADKIPPSLYSTYCQACSAAEEKPEDAALGVRAEPNSAEEPLGQLTAALGELRASMTDPSQRDVISAQVAVISERLRAVLGHNEDDSSVEISKIQLSINTPRLEPREHMAVDLLLTSFCQNLMAASSVAPPERQGPWAALFVRTMCGRVLPAVLTRLCQLLRHQGPSLSAPHVLGLAALAVHLGESRSALPEVDVGPPAPGAGLPVPALFDSLLTCRTRDSLFFCLKFCTAAISYSLCKFSSQSRDTLCSCLSPGLIKKFQFLMFRLFSEARQPLSEEDVASLSWRPLHLPSADWQRAALSLWTHRTFREVLKEEDVHLTYQDWLHLELEIQPEADALSDTERQDFHQWAIHEHFLPESSASGGCDGDLQAACTILVNALMDFHQSSRSYDHSENSDLVFGGRTGNEDIISRLQEMVADLELQQDLIVPLGHTPSQEHFLFEIFRRRLQALTSGWSVAASLQRQRELLMYKRILLRLPSSVLCGSSFQAEQPITARCEQFFHLVNSEMRNFCSHGGALTQDITAHFFRGLLNACLRSRDPSLMVDFILAKCQTKCPLILTSALVWWPSLEPVLLCRWRRHCQSPLPRELQKLQEGRQFASDFLSPEAASPAPNPDWLSAAALHFAIQQVREENIRKQLKKLDCEREELLVFLFFFSLMGLLSSHLTSNSTTDLPKAFHVCAAILECLEKRKISWLALFQLTESDLRLGRLLLRVAPDQHTRLLPFAFYSLLSYFHEDAAIREEAFLHVAVDMYLKLVQLFVAGDTSTVSPPAGRSLELKGQGNPVELITKARLFLLQLIPRCPKKSFSHVAELLADRGDCDPEVSAALQSRQQAAPDADLSQEPHLF
